Positions count from the first letter of the chain named.
How the values were obtained:
[1] = target: T1, hCTLA4_ECD.His (N145Q) (human, UniProt P16410 36-161); experiment: capture ELISA: W3162-1.154.8-z35 captured on anti-human Fc, hCTLA4-His mutein supernatant titrated (ng/ml), HRP-anti-His [C]
T1 construct: extracellular domain; Glycosylation-site mutein, expressed in HEK293F cells; also called CTLA-4 N145Q
T1 sequence (looked up): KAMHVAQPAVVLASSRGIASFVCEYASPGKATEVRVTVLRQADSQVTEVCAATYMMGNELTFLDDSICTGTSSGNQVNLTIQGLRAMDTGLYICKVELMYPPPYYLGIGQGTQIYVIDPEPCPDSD

[2] = target: T2, hCTLA4_ECD.His (N113 Q) (human, UniProt P16410 36-161); experiment: as above
T2 construct: extracellular domain; Glycosylation-site mutein, expressed in HEK293F cells; also called CTLA-4 with N113Q
T2 sequence (looked up): T1 sequence (looked up) with N78Q, Q110N

EC50 (read off the curve) [1]: ~3 ng/mL
EC50 (read off the curve) [2]: ~3 ng/mL
B1: W3162_1.154.8-z35-uAb.IgG1K (antibody, V domains shown)
VH: QVQLVQSGAEVKKPGSSVKVSCKASGYTFTNYFMNWVRQAPGQGLEWMGRVDPEQGRADYAEKFKKRVTITADKSTSTAYMELSSLRSEDTAVYYCARRAMDNYGFAYWGQGTLVTVSS
VL: EIVLTQSPDFQSVTPKEKVTITCSANSALSYMYWYQQKPDQSPKLWVHGTSNLASGVPSRFSGSGSGTDFTLTINSLEAEDAATYYCHHWSNTQWTFGGGTKVEIK
notes: Humanized; label says IgG1K
